# Assay results: PMC5443158
# System: CodY (Streptococcus pneumoniae D39)
# Assay: EMSA
# Conditions: lowest CodY concentration giving binding, 10 nM DNA, 5X binding buffer: 20 mM Tris-HCl pH 7.5, 30 mM KCl, 1 mM DTT, 1 mM EDTA, 10% glycerol, room temperature, 30 min (Fig 4A,B) or 20 min (Fig 4C), 20 ul, 8% …
substance,measurement,setting,value
tpxD promoter probe (FAM),binding,2 mM H2O2,400 nM
same,binding,"no H2O2, no BCAA",600 nM
